Experimental data as given in paper PMC9464592 (Nature, 2022).

How the values were obtained:
Test in all cases: SEC
MIOS A560E = target: T1, MIOS A560E (human, UniProt Q9NXC5 1-875, A560E)
T1 sequence: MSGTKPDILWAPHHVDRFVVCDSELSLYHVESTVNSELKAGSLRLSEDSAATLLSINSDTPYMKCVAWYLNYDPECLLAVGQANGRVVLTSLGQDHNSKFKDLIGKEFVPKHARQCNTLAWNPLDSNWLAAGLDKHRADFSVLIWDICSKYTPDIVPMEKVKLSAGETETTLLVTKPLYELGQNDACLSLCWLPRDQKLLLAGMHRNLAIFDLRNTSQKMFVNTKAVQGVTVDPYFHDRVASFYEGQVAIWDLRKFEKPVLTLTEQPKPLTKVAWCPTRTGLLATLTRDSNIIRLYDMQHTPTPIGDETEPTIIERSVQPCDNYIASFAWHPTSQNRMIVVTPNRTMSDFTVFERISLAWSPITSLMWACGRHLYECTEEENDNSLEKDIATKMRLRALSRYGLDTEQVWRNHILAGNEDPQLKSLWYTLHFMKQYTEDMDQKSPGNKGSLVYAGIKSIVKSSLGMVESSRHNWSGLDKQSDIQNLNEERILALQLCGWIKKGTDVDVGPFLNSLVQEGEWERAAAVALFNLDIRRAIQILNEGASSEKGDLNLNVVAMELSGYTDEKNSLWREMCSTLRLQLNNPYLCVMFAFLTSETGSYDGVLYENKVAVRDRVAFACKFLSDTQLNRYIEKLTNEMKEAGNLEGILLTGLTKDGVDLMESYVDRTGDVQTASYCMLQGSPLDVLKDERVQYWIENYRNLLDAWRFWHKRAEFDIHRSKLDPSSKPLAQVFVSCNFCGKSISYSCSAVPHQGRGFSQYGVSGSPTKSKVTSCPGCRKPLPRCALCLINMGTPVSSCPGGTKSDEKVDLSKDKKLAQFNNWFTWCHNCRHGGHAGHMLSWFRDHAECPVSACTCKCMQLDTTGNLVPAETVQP

WDR24 ∆CTD = target: T2, WDR24 ∆CTD (human, UniProt Q96S15 1-700)
T2 sequence (looked up): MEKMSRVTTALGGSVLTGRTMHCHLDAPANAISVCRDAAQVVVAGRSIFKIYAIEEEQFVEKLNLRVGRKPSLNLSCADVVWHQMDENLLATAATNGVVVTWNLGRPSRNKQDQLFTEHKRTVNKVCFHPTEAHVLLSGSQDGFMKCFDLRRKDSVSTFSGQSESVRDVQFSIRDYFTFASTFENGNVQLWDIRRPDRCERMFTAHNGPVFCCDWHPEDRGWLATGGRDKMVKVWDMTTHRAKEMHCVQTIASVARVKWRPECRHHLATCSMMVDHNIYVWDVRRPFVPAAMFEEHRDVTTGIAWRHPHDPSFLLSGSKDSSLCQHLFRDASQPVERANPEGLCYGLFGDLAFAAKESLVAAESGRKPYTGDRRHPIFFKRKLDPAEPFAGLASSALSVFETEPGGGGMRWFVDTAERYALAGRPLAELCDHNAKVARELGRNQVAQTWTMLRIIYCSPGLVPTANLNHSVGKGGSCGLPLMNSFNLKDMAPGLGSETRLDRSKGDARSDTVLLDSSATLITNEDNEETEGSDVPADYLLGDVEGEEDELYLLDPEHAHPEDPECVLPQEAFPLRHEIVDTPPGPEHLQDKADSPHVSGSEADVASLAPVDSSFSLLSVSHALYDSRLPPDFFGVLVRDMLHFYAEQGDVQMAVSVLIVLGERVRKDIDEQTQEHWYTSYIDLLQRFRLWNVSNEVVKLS

WDR59 ∆CTD = target: T3, WDR59 ∆CTD (human, UniProt Q6PJI9 1-890)
T3 sequence (looked up): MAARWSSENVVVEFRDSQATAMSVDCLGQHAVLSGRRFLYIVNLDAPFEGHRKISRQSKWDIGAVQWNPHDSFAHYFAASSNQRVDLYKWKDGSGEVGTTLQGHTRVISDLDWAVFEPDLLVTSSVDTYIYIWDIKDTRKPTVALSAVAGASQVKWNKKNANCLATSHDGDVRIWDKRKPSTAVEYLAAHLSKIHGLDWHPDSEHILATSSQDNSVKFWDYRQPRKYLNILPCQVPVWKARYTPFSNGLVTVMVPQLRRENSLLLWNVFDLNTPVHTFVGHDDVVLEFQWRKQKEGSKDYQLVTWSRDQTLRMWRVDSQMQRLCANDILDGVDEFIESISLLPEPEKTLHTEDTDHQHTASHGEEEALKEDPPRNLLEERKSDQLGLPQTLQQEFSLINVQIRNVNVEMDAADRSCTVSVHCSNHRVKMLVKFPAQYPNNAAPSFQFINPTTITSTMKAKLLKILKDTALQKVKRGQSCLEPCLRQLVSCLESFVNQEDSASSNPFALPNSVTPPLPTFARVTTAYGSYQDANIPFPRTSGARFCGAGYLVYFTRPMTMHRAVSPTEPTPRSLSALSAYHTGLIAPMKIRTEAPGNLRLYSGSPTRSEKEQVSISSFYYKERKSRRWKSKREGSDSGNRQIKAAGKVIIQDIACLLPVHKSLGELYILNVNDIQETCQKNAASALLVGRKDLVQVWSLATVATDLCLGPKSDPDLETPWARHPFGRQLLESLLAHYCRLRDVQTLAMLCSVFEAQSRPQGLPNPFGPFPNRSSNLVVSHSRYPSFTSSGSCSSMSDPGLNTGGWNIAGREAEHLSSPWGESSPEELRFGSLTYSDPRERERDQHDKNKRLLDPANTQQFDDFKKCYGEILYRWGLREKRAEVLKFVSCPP

Measured: binding result

B1: tag-free SEC13 (natural protein, human)
chain: MVSVINTVDTSHEDMIHDAQMDYYGTRLATCSSDRSVKIFDVRNGGQILIADLRGHEGPVWQVAWAHPMYGNILASCSYDRKVIIWREENGTWEKSHEHAGHDSSVNSVCWAPHDYGLILACGSSDGAISLLTYTGEGQWEVKKINNAHTIGCNAVSWAPAVVPGSLIDHPSGQKPNYIKRFASGGCDNLIKLWKEEEDGQWKEEQKLEAHSDWVRDVAWAPSIGLPTSTIASCSQDGRVFIWTCDDASSNTWSPKLLHKFNDVVWHVSWSITANILAVSGGDNKVTLWKESVDGQWVCISDVNKGQGSVSASVTEGQQNEQ
binds: all assays above
